The chains are these.
B1: F1*; the commonest letter at each place (parent)
chain: GAGACCGCAACTGAAAAGTTGTTATCACTTGTCGTAAGACACTTTGGATGGGTTGAAGTTCTGCACGTAGAAGCAAAAGGC

Variants of B1 are the subject of this series. Kind of series: fraction ligated after 30 min (ligated reads / total reads); higher = more ligase activity. The conditions noted are these: with F1*sub RNA substrate (template-directed ligation), 42 °C. The method, boiled down:
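Oligo-pool templates of ligase ribozyme variants were PCR-amplified, T7-transcribed and gel-purified. Ligated and unligated bands were gel-separated, reverse transcribed with barcoded primers, and MiSeq-sequenced; core bases were filtered at quality ≥20. Fraction ligated per variant was ligated reads over total reads.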
For GAGACCGCAACTGAAAAGTTGTTATCACTTGTCGTAGGACACTTTGGAGGGGTTGAAGTTCTGCACGTAGAAGCAAAAGGC [A37G T49G], the fraction ligated worked out at 0.807. For GAGACCGCAACTGAAAAGTTGTTATTACTTGTCGTAAGACACTTTGGAGGGGTTGAAGTTCTGCACGTAGAAGCAAAAGGC [C26T T49G], the fraction ligated was 0.405. To GAGACCGCAACTGAAAAGTTGTTATCACTTGTCATAAGACACTCTGGATGGGTTGAAGTTCTGCACGTAGAAGCAAAAGGC [G34A T44C] belongs 0.825; to GAGACCGCAACTGAAAAGTTGTTATTACTTGTCGGAAGACACTTTGGATGGGTTGAAGTTCTGCACGTAGAAGCAAAAGGC [C26T T35G], 0.817; to GAGACCGCAACTGAAAAGTTGTTATCACTTGACGTAAGACACTTTGGATGGGTTGAAGTTCTGCACGTAGAAGCAAAAGGC [T32A], 0.842. For GAGACCGCAACTGAAAAGTTGTTATGACTTGTCGTAAGACACTTTGGATGGGTTGCAGTTCTGCACGTAGAAGCAAAAGGC [C26G A56C], the fraction ligated amounted to 0.0241. For the variant GAGACCGCAACTGAAAAGTTGTTATCACTTGTCGTTAGACACTTTGTATGGGTTGAAGTTCTGCACGTAGAAGCAAAAGGC [A36T G47T], the fraction ligated was 0.383. Regarding GAGACCGCAACTGAAAAGTTGTTATCACTCGTCGTAAGACACTATGGATGGGTTGAAGTTCTGCACGTAGAAGCAAAAGGC [T30C T44A], the fraction ligated was 0.807. To GAGACCGCAACTGAAAAGTTGTTATCACTTCTCGTAAGACACGTTGGATGGGTTGAAGTTCTGCACGTAGAAGCAAAAGGC [G31C T43G] belongs 0.761; to GAGACCGCAACTGAAAAGTTGTTATCACTTGACGTAGGACACTTTGGATGGGTTGAAGTTCTGCACGTAGAAGCAAAAGGC [T32A A37G], 0.838. On to GAGACCGCAACTGAAAAGTTGTCATCACTTGTCGTAAGGCACTTTGGATGGGTTGAAGTTCTGCACGTAGAAGCAAAAGGC [T23C A39G], for which the fraction ligated is 0.831. Take GAGACCGCAACTGAAAAGTTGTAATCAATTGTCGTAAGACACTTTGGATGGGTTGAAGTTCTGCACGTAGAAGCAAAAGGC [T23A C28A]: the fraction ligated was 0.787. GAGACCGCAACTGAAAAGTTGTTATCACTTGTCGTAAGACACATTAGATGGGTTGAAGTTCTGCACGTAGAAGCAAAAGGC [T43A G46A]: the fraction ligated came to 0.789. As for GAGACCGCAACTGAAAAGTTGTTGTCACTTGTCGTAAGACACTTTGGATGGGTTGATGTTCTGCACGTAGAAGCAAAAGGC [A24G A57T], the fraction ligated came out at 0.728. As for GAGACCGCAACTGAAAAGTTGTTATCACTTGTGGTAAGCCACTTTGGATGGGTTGAAGTTCTGCACGTAGAAGCAAAAGGC [C33G A39C], the fraction ligated is 0.833. For the variant GAGACCGCAACTGAAAAGTTGTTATCACTTATCGGAAGACACTTTGGATGGGTTGAAGTTCTGCACGTAGAAGCAAAAGGC [G31A T35G], the fraction ligated stood at 0.763.

GAGACCGCAACTGAAAAGTTGTTATCATTTGTCGTAACACACTTTGGATGGGTTGAAGTTCTGCACGTAGAAGCAAAAGGC [C28T G38C]: the fraction ligated was 0.799. With GAGACCGCAACTGAAAAGTTGTAATCACTTGTCGTAAGACACTCTGGATGGGTTGAAGTTCTGCACGTAGAAGCAAAAGGC [T23A T44C], the fraction ligated worked out at 0.784.

Consider GAGACCGCAACTGAAAAGTTGTAATCACTTGTCGTAAGACACTATGGATGGGTTGAAGTTCTGCACGTAGAAGCAAAAGGC [T23A T44A], for which the fraction ligated was determined as 0.819. As to GAGACCGCAACTGAAAAGTTGTTAACACTTGTCGTGAGACACTTTGGATGGGTTGAAGTTCTGCACGTAGAAGCAAAAGGC [T25A A36G], the fraction ligated came out at 0.766. With GAGACCGCAACTGAAAAGTTGTTATCACTTATCGTAAGACACTGTGGATGGGTTGAAGTTCTGCACGTAGAAGCAAAAGGC [G31A T44G], the fraction ligated came out at 0.819.

As to GAGACCGCAACTGAAAAGTTGTTATCACTGGTCGTAAGACACTGTGGATGGGTTGAAGTTCTGCACGTAGAAGCAAAAGGC [T30G T44G], the fraction ligated turned out to be 0.798. For GAGACCGCAACTGAAAAGTTGTTTTCACTTGTCGTAAGACACTTTGGATGGGTTAAAGTTCTGCACGTAGAAGCAAAAGGC [A24T G55A] the value was 0.532; for GAGACCGCAACTGAAAAGTTGTTCTCACTTGTCGTAAGACACTTTGGATGGGTTAAAGTTCTGCACGTAGAAGCAAAAGGC [A24C G55A], 0.649; for GAGACCGCAACTGAAAAGTTGTTATCACTTGACGTAAGACACCTTGGATGGGTTGAAGTTCTGCACGTAGAAGCAAAAGGC [T32A T43C], 0.812. On to GAGACCGCAACTGAAAAGTTGTTATTACTTGTCGTAAGACACTTTGGCTGGGTTGAAGTTCTGCACGTAGAAGCAAAAGGC [C26T A48C], for which the fraction ligated was 0.418. As to GAGACCGCAACTGAAAAGTTGTGATCACTTATCGTAAGACACTTTGGATGGGTTGAAGTTCTGCACGTAGAAGCAAAAGGC [T23G G31A], the fraction ligated came out at 0.849.

Consider GAGACCGCAACTGAAAAGTTGTTGTCACTTGTCCTAAGACACTTTGGATGGGTTGAAGTTCTGCACGTAGAAGCAAAAGGC [A24G G34C], for which the fraction ligated is 0.73. To GAGACCGCAACTGAAAAGTTGTTATCACGTGTCGTAAGACACGTTGGATGGGTTGAAGTTCTGCACGTAGAAGCAAAAGGC [T29G T43G] belongs 0.777; to GAGACCGCAACTGAAAAGTTGTTATCACTTGTCGTAAGACACTTTAGATGGGTTGAGGTTCTGCACGTAGAAGCAAAAGGC [G46A A57G], 0.799.

Take GAGACCGCAACTGAAAAGTTGTTATCACTCGTCGTAAGACACTTTGGATCGGTTGAAGTTCTGCACGTAGAAGCAAAAGGC [T30C G50C]: the fraction ligated was found to be 0.107.

In the case of GAGACCGCAACTGAAAAGTTGTTATGACTTCTCGTAAGACACTTTGGATGGGTTGAAGTTCTGCACGTAGAAGCAAAAGGC [C26G G31C], the fraction ligated came out at 0.176. As for GAGACCGCAACTGAAAAGTTGTTATCACTTGTCGTAATACACGTTGGATGGGTTGAAGTTCTGCACGTAGAAGCAAAAGGC [G38T T43G], the fraction ligated is 0.773. To GAGACCGCAACTGAAAAGTTGTTATCGCTTGGCGTAAGACACTTTGGATGGGTTGAAGTTCTGCACGTAGAAGCAAAAGGC [A27G T32G] belongs 0.827.

(Values after the supplement of paper PMC6755084.)
